Assay results as given in US20190300590A1 (PROTAGONIST THERAPEUTICS, published 2019).
Read-outs that look alike come from different tables or passages of the source. *1 amine or outer side, *2 acyl side, *3 side chain or, on linkers, in order; H or OH if unused. Bridges are numbered along the chain shown (N, C = ends). Primed or numbered codes have the meaning given here. Side-chain parts run from the residue outwards. [ ]: non-standard residue; d: D form. The star is where a group is joined. Phe(4-OMe)(3) = O-methyl-L-tyrosine (4-methoxy-L-phenylalanine), COc1ccc(C[C@H](N[*:1])C(=O)[*:2])cc1; Phe(4-OMe)(4) = O-methyl-L-tyrosine, COc1ccc(C[C@H](N[*:1])C(=O)[*:2])cc1; Phe(4-CONH2) = NC(=O)c1ccc(C[C@H](N)C(=O)O)cc1; 2Nal = N[C@@H](Cc1ccc2ccccc2c1)C(=O)O; AEF = NCCOc1ccc(C[C@H](N)C(=O)O)cc1; pGlu = O=C1CC[C@@H](C(=O)O)N1; αMeL = CC(C)C[C@](C)(N)C(=O)O; Suc = O=C(CCC(=O)[*:2])[*:1]; αMeK = C[C@](N)(CCCCN)C(=O)O; Isovaleryl = CC(C)CC(=O)*; PEG2′ = not defined here; Abu = CC[C@H](N)C(=O)O; Dap = NC[C@H](N)C(=O)O; Aib = CC(C)(N)C(=O)O

T1: IL-23R on human cells (IL-23R-expressing DB cells; human NK cells) (human, UniProt Q5VWK5 24-629)
T1 sequence (looked up): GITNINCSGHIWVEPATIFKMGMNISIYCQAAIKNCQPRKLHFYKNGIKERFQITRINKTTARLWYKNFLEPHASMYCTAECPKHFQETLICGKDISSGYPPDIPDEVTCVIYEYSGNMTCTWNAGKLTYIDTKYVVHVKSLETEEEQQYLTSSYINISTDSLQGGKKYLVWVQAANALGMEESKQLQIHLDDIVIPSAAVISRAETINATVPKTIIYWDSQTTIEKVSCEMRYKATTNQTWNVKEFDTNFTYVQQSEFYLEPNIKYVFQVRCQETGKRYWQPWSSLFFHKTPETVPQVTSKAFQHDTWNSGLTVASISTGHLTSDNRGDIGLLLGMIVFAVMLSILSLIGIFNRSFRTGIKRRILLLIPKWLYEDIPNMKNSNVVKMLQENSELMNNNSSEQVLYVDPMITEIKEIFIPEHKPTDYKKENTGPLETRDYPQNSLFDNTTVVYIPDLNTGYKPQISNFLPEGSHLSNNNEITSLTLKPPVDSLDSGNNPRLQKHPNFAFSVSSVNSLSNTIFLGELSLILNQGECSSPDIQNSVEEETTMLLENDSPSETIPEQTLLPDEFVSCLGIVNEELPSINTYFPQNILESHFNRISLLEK

T2: IL23R_huFC (human, UniProt Q5VWK5 24-353)
T2 sequence (looked up): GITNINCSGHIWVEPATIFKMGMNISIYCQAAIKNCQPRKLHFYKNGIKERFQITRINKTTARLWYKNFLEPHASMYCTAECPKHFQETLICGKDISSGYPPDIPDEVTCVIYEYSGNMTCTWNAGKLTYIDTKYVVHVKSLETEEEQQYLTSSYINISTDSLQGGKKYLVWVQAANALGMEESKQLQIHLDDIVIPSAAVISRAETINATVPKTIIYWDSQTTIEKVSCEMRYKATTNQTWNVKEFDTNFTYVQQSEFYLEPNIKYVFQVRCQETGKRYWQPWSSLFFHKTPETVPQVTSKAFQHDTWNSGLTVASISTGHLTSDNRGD

T3: Rat IL-23R_huFC (rat, UniProt F1LX96 39-369)
T3 sequence: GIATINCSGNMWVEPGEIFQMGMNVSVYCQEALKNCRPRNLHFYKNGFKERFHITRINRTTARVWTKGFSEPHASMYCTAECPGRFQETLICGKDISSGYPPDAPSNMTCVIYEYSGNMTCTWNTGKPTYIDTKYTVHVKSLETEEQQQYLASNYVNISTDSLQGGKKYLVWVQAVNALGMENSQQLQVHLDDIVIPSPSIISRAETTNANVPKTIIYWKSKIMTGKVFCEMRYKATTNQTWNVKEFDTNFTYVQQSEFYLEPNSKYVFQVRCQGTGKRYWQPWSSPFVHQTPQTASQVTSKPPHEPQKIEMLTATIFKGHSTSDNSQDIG

B1: succinic acid-[Pen]-QTWQ[Pen]-[Phe(4-OMe)]-[2-Nal]-[α-MeLys]-[Lys(Ac)]-NG-NH2 (peptide)
peptide: XQTWQXFXKKNG
modifications: N-terminal succinic acid; Pen-Pen disulfide; Phe(4-OMe); 2-Nal; α-MeLys; Lys(Ac); NH2
B2: glutaric acid-[Pen]-QTWQ[Pen]-[Phe(4-OMe)]-[2-Nal]-[α-MeLys]-[Lys(Ac)]-NG-NH2 (peptide)
peptide: XQTWQXFXKKNG
modifications: N-terminal glutaric acid; Pen-Pen disulfide; Phe(4-OMe); 2-Nal; α-MeLys; Lys(Ac); NH2
B3: 4-methylmorpholine-2,6-dione-[Pen]-QTWQ[Pen]-[Phe(4-OMe)]-[2-Nal]-[α-MeLys]-[Lys(Ac)]-NG-NH2 (peptide)
peptide: XQTWQXFXKKNG
modifications: N-terminal 4-methylmorpholine-2,6-dione; Pen-Pen disulfide; Phe(4-OMe); 2-Nal; α-MeLys; Lys(Ac); NH2
B4: isovaleric acid-[Pen]-QTWQ[Pen]-[Phe(4-OMe)]-[2-Nal]-[α-MeLys]-[Lys(Ac)]-NG-NH2 (peptide)
peptide: XQTWQXFXKKNG
modifications: N-terminal isovaleric acid; Pen-Pen disulfide; Phe(4-OMe); 2-Nal; α-MeLys; Lys(Ac); NH2
B5: 4-fluorophenylacetic acid-[Pen]-QTWQ-[Pen]-[Phe(4-OMe)]-[2-Nal]-[α-MeLys]-[Lys(Ac)]-NG-NH2 (peptide)
peptide: XQTWQXFXKKNG
modifications: N-terminal 4-fluorophenylacetic acid; Pen-Pen disulfide; Phe(4-OMe); 2-Nal; α-MeLys; Lys(Ac); NH2

How the values were obtained:
[1] = target: T1, IL-23R on human cells …; experiment: cell-based or functional assay
IL23R_huFC [2] = target: T2, IL23R_huFC; experiment: human ELISA vs IL-23
IL23R_huFC [3] = target: T2, IL23R_huFC; experiment: human ELISA vs IL-23; remark: listed apart in the source
Rat IL-23R_huFC [4] = target: Rat IL-23R_huFC (rat); experiment: rat ELISA vs IL-23
Rat IL-23R_huFC [5] = target: T3, Rat IL-23R_huFC; experiment: rat IL-23R competitive binding ELISA

Row | IC50 (Rat IL-23R_huFC [4]) | IC50 (Rat IL-23R_huFC [5]) | further results | Binder
1 | – | – | pStat3 HTRF IC50 [1]: < 10 nM; IC50 (IL23R_huFC [2]): 0.01 to 0.025 µM | Ac-[Abu]QTWQC[AEF][2Nal][αMeK][Dap](pGlu)NG-NH2 (thioether 1-6) [Ac-Cyclo-[[Abu]-QTWQC]-[Phe[4-(2-aminoethoxy)]]-[2-Nal]-[α-MeLys]-[Dap(pyroglutamic acid)]-NG-NH2]
2 | – | – | pStat3 HTRF IC50 [1]: < 10 nM; IC50 (IL23R_huFC [2]): 0.01 to 0.025 µM | XQTWQCFWXENG (as bracketed in name; thioether cyclo) [Ac-Cyclo-[[Abu]-QTWQC]-[Phe[4-(2-aminoethoxy)]]-W-[α-Me-Orn]-ENG-NH2]
3 | 0.01 to 0.025 µM | – | pStat3 HTRF IC50 [1]: < 10 nM; IC50 (IL23R_huFC [3]): < 0.01 µM | Ac-[dK][Abu]QTWQC[Phe(4-OMe)(4)][2Nal][αMeL]ENG-NH2 (thioether 2-7) [Ac-(D)Lys-[Cyclo-[[Abu]-QTWQC]]-[Phe(4-OMe)]-[2-Nal]-[α-MeLeu]-ENG-NH2]
4 | – | – | pStat3 HTRF IC50 [1]: < 10 nM; IC50 (IL23R_huFC [2]): 0.01 to 0.025 µM | Ac-[Abu]QTWQC[AEF]W[Aib]ENG-NH2 (thioether 1-6) [Ac-Cyclo-[[Abu]-QTWQC]-[Phe[4-(2-aminoethoxy)]]-W-[Aib]-ENG-NH2]
5 | 0.01 to 0.025 µM | – | pStat3 HTRF IC50 [1]: < 10 nM; IC50 (IL23R_huFC [3]): < 0.01 µM | Ac-[2Nal][Abu]QTWQC[AEF][2Nal][αMeK]ENN-NH2 (thioether 2-7) [Ac-[2-Nal]-Cyclo-[[Abu]-QTWQC]-[Phe[4-(2-aminoethoxy)]]-[2-Nal]-[α-MeLys]-ENN-NH2]
6 | – | 0.025 to 0.1 µM | – | XRTWQXYWRKFGXK (Ac; Pen-Pen disulfide; AEA; (D)-Lys; NH2) [Ac-[Pen]-RTWQ-[Pen]-YWRKFG-[AEA]-[(D)-Lys]-NH2]
7 | – | 0.025 to 0.1 µM | – | XQTWQXFWKKNG (Ac; Pen-Pen disulfide; Phe(4-OMe); α-MeLys; Lys(Ac); NH2) [Ac-[Pen]-QTWQ-[Pen]-[Phe-(4-OMe)]-W-[α-MeLys]-[Lys(Ac)]-NG-NH2]
8 | – | 0.1 to 1 µM | – | XQTWQXFXKKNG (Ac; Pen-Pen disulfide; Phe(4-OMe); 1-Nal; α-MeLys; Lys(Ac); NH2) [Ac-[Pen]-QTWQ-[Pen]-[Phe(4-OMe)]-[1-Nal]-[α-MeLys]-[Lys(Ac)]-NG-NH2]
9 | – | 0.025 to 0.1 µM | – | B1
10 | – | 0.025 to 0.1 µM | – | B2
11 | – | 0.025 to 0.1 µM | – | B3
12 | – | 0.025 to 0.1 µM | – | B4
13 | – | 0.1 to 1 µM | – | B5
14 | – | 0.025 to 0.1 µM | – | XQTWQXFXKKNG (Ac; Pen-Pen disulfide; Phe[4-(2-aminoethoxy)]; 2-Nal; α-MeLys; Lys(Ac); NH2) [Ac-[Pen]-QTWQ-[Pen]-[Phe[4-(2-aminoethoxy)]-[2-Nal]-[α-MeLys]-[Lys(Ac)]-NG-NH2]
15 | 0.01 to 0.025 µM | – | – | Ac-[Abu]QTWQC[Phe(4-OMe)(3)][2Nal][αMeK]K(Ac)NG-NH2 (thioether 1-6) [Ac-Cyclo-[[Abu]-QTWQC]-[Phe(4-OMe)]-[2-Nal][α-MeLys]-[Lys(Ac)]-NG-NH2]
16 | 0.01 to 0.025 µM | – | – | Ac-[Abu]QTWQC[AEF]W[αMeK]ENG-NH2 (thioether 1-6) [Ac-Cyclo-[[Abu]-QTWQC]-[Phe[4-(2-aminoethoxy)]-W-[α-MeLys]-ENG-NH2]
17 | 0.01 to 0.025 µM | – | – | Ac-[Abu]QTWQC[Phe(4-CONH2)][2Nal][αMeK]K(Ac)NG-NH2 (thioether 1-6) [Ac-Cyclo-[[Abu]-QTWQC]-[Phe(4-CONH2)]-[2-Nal][α-MeLys]-[Lys(Ac)]-NG-NH2]
18 | 0.01 to 0.025 µM | – | – | Ac-[Abu]QTWQC[AEF][2Nal][αMeK]K(Suc)NG-NH2 (thioether 1-6) [Ac-Cyclo-[[Abu]-QTWQC]-[Phe[4-(2-aminoethoxy)]]-[2-Nal]-[α-MeLys]-[Lys(succinic acid)]-NG-NH2]
19 | 0.01 to 0.025 µM | – | – | Ac-[Abu]QTWQC[AEF][2Nal][αMeK]K(Isovaleryl)NG-NH2 (thioether 1-6) [Ac-Cyclo-[[Abu]-QTWQC]-[Phe[4-(2-aminoethoxy)]]-[2-Nal]-[α-MeLys]-[Lys(isovaleric acid)]-NG-NH2]
20 | – | – | IC50 (IL23R_huFC [2]): 0.01 to 0.025 µM | Ac-[Abu]QTWQC[AEF][2Nal][αMeK][Dap]([PEG2′-Ac])NG-NH2 (thioether 1-6) [Ac-Cyclo-[[Abu]-QTWQC]-[Phe[4-(2-aminoethoxy)]]-[2-Nal][α-MeLys]-[Dap(PEG2-Ac)]NG-NH2]
